From article PMC8270467, “A MYB4-MAN3-Mannose-MNB1 signaling cascade regulates cadmium tolerance in Arabidopsis”

B1: ProMAN3 P1 probe (dsDNA)
DNA 1: GGTTTACAAATCAACAACCACTGAACTTTT
DNA 2: AAAAGTTCAGTGGTTGTTGATTTGTAAACC
B2: ProMAN3 P2 probe (dsDNA)
DNA 1: AAGATGGGTTTGCTTGGTGAGACCACAAGA
DNA 2: TCTTGTGGTCTCACCAAGCAAACCCATCTT
B3: ProMAN3 P3 probe (dsDNA)
DNA 1: CAAATCATATAGTTTGGTGACTGATTTCAA
DNA 2: TTGAAATCAGTCACCAAACTATATGATTTG
B4: ProMAN3 P4 probe (dsDNA)
DNA 1: AGTTAGTCAATGAACGGTTTTCAAATAAAG
DNA 2: CTTTATTTGAAAACCGTTCATTGACTAACT

Biological target: MYB4-MBP (Arabidopsis thaliana, UniProt Q9SZP1 1-282)
Sequence (Q9SZP1 whole entry): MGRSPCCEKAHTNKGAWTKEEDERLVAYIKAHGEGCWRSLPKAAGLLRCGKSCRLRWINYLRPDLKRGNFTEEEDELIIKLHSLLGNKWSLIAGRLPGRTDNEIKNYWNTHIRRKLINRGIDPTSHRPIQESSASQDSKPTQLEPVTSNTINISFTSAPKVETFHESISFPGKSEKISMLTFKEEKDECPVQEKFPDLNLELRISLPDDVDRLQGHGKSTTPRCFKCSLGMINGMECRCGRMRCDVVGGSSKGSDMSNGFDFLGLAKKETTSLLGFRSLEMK
Assay: EMSA; LightShift Chemiluminescent EMSA Kit (Thermo), manufacturer's protocol; buffer, salt, pH and temperature not stated
Settings: protein: recombinant; tags: MBP; label: 3' biotin on sense strand; blunt

Row | Binder | binding result
1 | B1 | binds
2 | B2 | binds
3 | B3 | binds
4 | B4 | binds
